In the Human Domainome abundance scans (Beltran et al. 2025):
± gives the uncertainty stated by the source.

B1: Protein maelstrom homolog, residues 3 to 71; numbered along this chain, Q96JY0 (parent)
chain: NRKASRNAYYFFVQEKIPELRRRGLPVARVADAIPYCSSDWALLREEEKEKYAEMAREWRAAQGKDPGP

Variants of: B1
Assay: abundance fitness (aPCA) (normalised: wild type 0, dead -1); higher = more abundant; growth selection in yeast, the domain comes from the species named
Conditions: Homo sapiens

Row | Variant | abundance fitness
1 | I34W | -0.04 ± 0.062
2 | I34H | -0.307 ± 0.25
3 | I34G | -0.198 ± 0.04
4 | I34A | -0.133 ± 0.065
5 | I34N | -0.06 ± 0.15
6 | I34M | 0.069 ± 0.12
7 | I34Y | -0.064 ± 0.26
8 | I34K | 0.406 ± 0.13
9 | I34T | -0.19 ± 0.11
10 | I34S | -0.229 ± 0.078
11 | I34Q | -0.25 ± 0.092
12 | I34V | -0.137 ± 0.06
13 | I34C | -0.203 ± 0.14
14 | I34R | -0.148 ± 0.039
15 | I34F | 0.091 ± 0.13
16 | I34D | 0.113 ± 0.2
17 | I34L | -0.17 ± 0.065
18 | I34E | -0.113 ± 0.094
19 | D32T | -0.257 ± 0.2
20 | D32Q | -0.616 ± 0.23
21 | D32Y | -1.09 ± 0.37
22 | D32R | -0.596 ± 0.1
23 | D32V | -0.952 ± 0.12
24 | D32S | -0.817 ± 0.14

Row | Variant | abundance fitness
25 | D32W | -1.07 ± 0.15
26 | L44A | -0.254 ± 0.048
27 | L44F | -0.443 ± 0.18
28 | L44M | -0.38 ± 0.13
29 | L44K | -0.568 ± 0.28
30 | L44R | -0.802 ± 0.091
31 | L44C | -0.343 ± 0.17
32 | L44Q | -0.168 ± 0.15
33 | L44D | -0.553 ± 0.23
34 | L44P | -0.751 ± 0.14
35 | L44E | -0.421 ± 0.14
36 | L44G | -0.864 ± 0.17
37 | L44H | -1 ± 0.32
38 | L44I | -0.482 ± 0.21
39 | A33V | -0.541 ± 0.078
40 | A33L | -0.47 ± 0.068
41 | A33C | -0.599 ± 0.15
42 | A33T | -0.619 ± 0.11
43 | A33S | -0.588 ± 0.088
44 | A33Q | -1.05 ± 0.17
45 | A33W | -0.665 ± 0.17
46 | A33D | -0.62 ± 0.28
47 | A33R | -0.83 ± 0.083
48 | A33P | -0.654 ± 0.14

Row | Variant | abundance fitness
49 | A33E | -0.725 ± 0.2
50 | A33F | -0.808 ± 0.22
51 | A33H | -0.279 ± 0.28
52 | A33Y | -0.713 ± 0.18
53 | A33G | -0.098 ± 0.06
54 | A33K | -0.714 ± 0.18
55 | A33M | -0.707 ± 0.1
56 | S38Y | -0.06 ± 0.21
57 | S38L | -0.132 ± 0.2
58 | S38R | 0.171 ± 0.17
59 | S38M | -0.154 ± 0.2
60 | S38F | -0.223 ± 0.2
61 | S38C | -0.337 ± 0.22
62 | S38G | 0.193 ± 0.17
63 | S38V | 0.073 ± 0.28
64 | S38Q | 0.155 ± 0.24
65 | P35H | 0.058 ± 0.28
66 | P35S | -0.628 ± 0.1
67 | P35I | -0.524 ± 0.33
68 | P35A | -0.435 ± 0.075
69 | P35V | -0.78 ± 0.12
70 | P35Q | -0.451 ± 0.098
71 | P35D | -0.181 ± 0.16
72 | P35L | -0.713 ± 0.1

Row | Variant | abundance fitness
73 | P35Y | -1.07 ± 0.45
74 | P35G | -0.224 ± 0.055
75 | P35K | 0.049 ± 0.079
76 | P35F | -0.862 ± 0.48
77 | P35E | -0.289 ± 0.1
78 | P35W | -0.756 ± 0.098
79 | P35N | -0.266 ± 0.2
80 | P35T | -0.554 ± 0.11
81 | P35M | -0.18 ± 0.082
82 | S39Y | 0.041 ± 0.11
83 | S39H | 0.109 ± 0.11
84 | S39Q | 0 ± 0.086
85 | S39T | 0.132 ± 0.074
86 | S39D | 0.07 ± 0.16
87 | S39E | -0.073 ± 0.097
88 | S39G | 0.13 ± 0.054
89 | S39A | -0.058 ± 0.065
90 | S39P | 0.093 ± 0.089
91 | S39L | -0.137 ± 0.061
92 | S39M | 0.129 ± 0.074
93 | S39V | -0.164 ± 0.074
94 | S39C | -0.174 ± 0.096
95 | S39W | 0.022 ± 0.067
96 | S39F | -0.016 ± 0.16

Row | Variant | abundance fitness
97 | A42P | -0.326 ± 0.071
98 | A42M | -0.083 ± 0.08
99 | A42N | 0.157 ± 0.11
100 | A42S | 0 ± 0.067
101 | A42H | -0.03 ± 0.12
102 | A42Y | -0.101 ± 0.1
103 | A42W | -0.236 ± 0.062
104 | A42I | -0.234 ± 0.27
105 | A42C | -0.177 ± 0.07
106 | A42G | 0.058 ± 0.051
107 | A42F | -0.081 ± 0.12
108 | A42L | -0.082 ± 0.061
109 | A42R | -0.059 ± 0.051
110 | A42K | 0.016 ± 0.084
111 | A42D | 0.015 ± 0.15
112 | A42E | 0.005 ± 0.075
113 | A42Q | -0.147 ± 0.071
114 | W41G | -0.784 ± 0.055
115 | W41R | -0.572 ± 0.054
116 | W41E | -0.813 ± 0.1
117 | W41S | -0.888 ± 0.069
118 | W41N | -0.706 ± 0.19
119 | W41I | -0.968 ± 0.3
120 | W41P | -0.572 ± 0.1

Row | Variant | abundance fitness
121 | W41H | -1.1 ± 0.23
122 | W41T | -0.682 ± 0.11
123 | W41M | -0.886 ± 0.21
124 | W41L | -0.941 ± 0.086
125 | W41F | -0.284 ± 0.17
126 | W41Q | -1.1 ± 0.2
127 | W41K | -0.622 ± 0.078
128 | W41A | -0.553 ± 0.075
129 | W41Y | -0.394 ± 0.14
130 | W41V | -0.682 ± 0.071
131 | C37L | -0.244 ± 0.054
132 | C37Q | -0.636 ± 0.16
133 | C37M | -0.291 ± 0.073
134 | C37F | -0.55 ± 0.13
135 | C37T | -0.434 ± 0.11
136 | C37K | -0.719 ± 0.13
137 | C37I | -0.229 ± 0.15
138 | C37A | -0.19 ± 0.075
139 | C37R | -0.731 ± 0.072
140 | C37G | -0.557 ± 0.043
141 | C37S | -0.561 ± 0.07
142 | C37E | -0.636 ± 0.13
143 | C37V | -0.137 ± 0.057
144 | C37Y | -0.741 ± 0.13

Row | Variant | abundance fitness
145 | D40N | -0.007 ± 0.16
146 | D40Y | -0.48 ± 0.36
147 | D40V | -0.036 ± 0.2
148 | D40G | -0.856 ± 0.44
149 | L43P | -0.477 ± 0.077
150 | L43S | 0.094 ± 0.058
151 | L43I | -0.16 ± 0.24
152 | L43N | 0.252 ± 0.21
153 | L43W | -0.287 ± 0.063
154 | L43M | -0.098 ± 0.078
155 | L43C | -0.176 ± 0.11
156 | L43R | 0.158 ± 0.044
157 | L43Y | 0.086 ± 0.14
158 | L43F | -0.473 ± 0.26
159 | L43G | 0.064 ± 0.046
160 | L43K | -0.02 ± 0.097
161 | L43A | 0.106 ± 0.073
162 | L43D | 0.277 ± 0.1
163 | L43H | 0.078 ± 0.16
164 | L43T | -0.108 ± 0.088
165 | L43Q | 0.151 ± 0.074
166 | L43E | 0.102 ± 0.05
167 | L43V | 0.006 ± 0.035
